Among the data in US20240261333A1, “NOVEL TARGETS FOR ENHANCING ANTI-TUMOR IMMUNITY” (THE BROAD INSTITUTE, INC., priority 2021, published 2024) are co-IP mass spectrometry count values, retold here.

Assay [1] addresses PDIA4 (human) (UniProt P13667). Put plainly: IgG control IP from lysate of N-FLAG B3GNT2 cells, mass spectrometry.
In assay [2] the target is FBXO6 (human) (UniProt Q9NRD1). The description is as above.
Assay [3] addresses LDHA (human) (UniProt P00338). The description is as above.
For assay [4], the target named is DNAJA3 (human) (UniProt Q96EY1). The description is as above.
In assay [5] the target is RPL34 (human) (UniProt P49207). The assay is described as above.
Assay [6] concerns the target KPNB1 (human) (UniProt Q14974). The assay is described as above.
In assay [7] the target is ELOC (human) (UniProt Q15369). Described as above.
Assay [8] has as its target ERP44 (human) (UniProt Q9BS26). The description is as above.
In assay [9] the target is PSMC2 (human) (UniProt P35998). The assay is described as above.
For assay [10], the target named is PXN (human) (UniProt P49023). The assay is described as above.
The target in assay [11] is TUBA1C (human) (UniProt Q9BQE3). The assay is described as above.
For assay [12], the target named is ABCD1 (human) (UniProt P33897). The description is as above.
Assay [13] addresses SFXN3 (human) (UniProt Q9BWM7). Described as above.
The target of assay [14] is IFI16 (human) (UniProt Q16666). The assay is described as above.
Assay [15] addresses ZRANB2 (human) (UniProt O95218). The assay is described as above.
For assay [16], the target named is RPS6 (human) (UniProt P62753). The assay is described as above.
Assay [17] has as its target RPL15 (human) (UniProt P61313). Described as above.
The target in assay [18] is EEF2 (human) (UniProt P13639). Described as above.
In assay [19] the target is PSMA5 (human) (UniProt P28066). Described as above.
Assay [20] has as its target TECR (human) (UniProt Q9NZ01). The description is as above.
Assay [21] has as its target ERP29 (human) (UniProt P30040). The assay is described as above.
In assay [22] the target is H1FX (human) (UniProt Q92522). The description is as above.
Assay [23] has as its target KTN1 (human) (UniProt Q86UP2). The assay is described as above.
For assay [24], the target named is LARP4 (human) (UniProt Q71RC2). The assay is described as above.
The target of assay [25] is ACSL3 (human) (UniProt O95573). Described as above.
In assay [26] the target is NTPCR (human) (UniProt Q9BSD7). The assay is described as above.
Assay [27] concerns the target UBTF (human) (UniProt P17480). The assay is described as above.
Assay [28] deals with RRBP1 (human) (UniProt Q9P2E9). The assay is described as above.
Assay [29] has as its target TRAFD1 (human) (UniProt O14545). The description is as above.
For assay [30], the target named is AIFM1 (human) (UniProt O95831). Described as above.
Assay [31] addresses HSP90AB1 (human) (UniProt P08238). The description is as above.
The target in assay [32] is IPO7 (human) (UniProt O95373). Described as above.
Assay [33] deals with FBXO6 (human) (UniProt Q9NRD1). The experiment in a line: anti-FLAG co-IP from lysate of N-FLAG B3GNT2 cells, mass spectrometry.
In assay [34] the target is KPNB1 (human) (UniProt Q14974). The description is as above.
In assay [35] the target is PSMC2 (human) (UniProt P35998). Described as above.
Assay [36] concerns the target ZRANB2 (human) (UniProt O95218). Described as above.
The target in assay [37] is PSMA5 (human) (UniProt P28066). The description is as above.
Assay [38] concerns the target PSMB4 (human) (UniProt P28070). The assay is described as above.
The target in assay [39] is PGAM5 (human) (UniProt Q96HS1). Described as above.
PGAM5 (human), sequence (Q96HS1 whole entry): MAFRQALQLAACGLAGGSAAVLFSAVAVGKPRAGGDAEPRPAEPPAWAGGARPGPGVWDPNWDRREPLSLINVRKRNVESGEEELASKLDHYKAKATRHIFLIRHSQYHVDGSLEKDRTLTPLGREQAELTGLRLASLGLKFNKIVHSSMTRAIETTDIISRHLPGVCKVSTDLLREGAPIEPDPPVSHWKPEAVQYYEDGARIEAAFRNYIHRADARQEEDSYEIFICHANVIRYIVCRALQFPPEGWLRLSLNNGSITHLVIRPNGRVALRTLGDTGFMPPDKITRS

ZRANB2 (human), sequence (O95218 other isoform, or with tags, fused parts or gaps limits assumed): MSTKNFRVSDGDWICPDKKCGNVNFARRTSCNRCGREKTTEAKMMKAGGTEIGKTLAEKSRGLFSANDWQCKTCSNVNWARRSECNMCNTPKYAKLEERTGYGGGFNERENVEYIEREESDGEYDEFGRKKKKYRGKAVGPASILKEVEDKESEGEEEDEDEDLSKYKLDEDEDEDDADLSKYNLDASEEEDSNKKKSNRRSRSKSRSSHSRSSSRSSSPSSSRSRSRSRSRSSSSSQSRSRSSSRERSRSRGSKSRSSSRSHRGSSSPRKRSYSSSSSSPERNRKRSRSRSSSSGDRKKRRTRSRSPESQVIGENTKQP
KPNB1 (human), sequence (Q14974 whole entry): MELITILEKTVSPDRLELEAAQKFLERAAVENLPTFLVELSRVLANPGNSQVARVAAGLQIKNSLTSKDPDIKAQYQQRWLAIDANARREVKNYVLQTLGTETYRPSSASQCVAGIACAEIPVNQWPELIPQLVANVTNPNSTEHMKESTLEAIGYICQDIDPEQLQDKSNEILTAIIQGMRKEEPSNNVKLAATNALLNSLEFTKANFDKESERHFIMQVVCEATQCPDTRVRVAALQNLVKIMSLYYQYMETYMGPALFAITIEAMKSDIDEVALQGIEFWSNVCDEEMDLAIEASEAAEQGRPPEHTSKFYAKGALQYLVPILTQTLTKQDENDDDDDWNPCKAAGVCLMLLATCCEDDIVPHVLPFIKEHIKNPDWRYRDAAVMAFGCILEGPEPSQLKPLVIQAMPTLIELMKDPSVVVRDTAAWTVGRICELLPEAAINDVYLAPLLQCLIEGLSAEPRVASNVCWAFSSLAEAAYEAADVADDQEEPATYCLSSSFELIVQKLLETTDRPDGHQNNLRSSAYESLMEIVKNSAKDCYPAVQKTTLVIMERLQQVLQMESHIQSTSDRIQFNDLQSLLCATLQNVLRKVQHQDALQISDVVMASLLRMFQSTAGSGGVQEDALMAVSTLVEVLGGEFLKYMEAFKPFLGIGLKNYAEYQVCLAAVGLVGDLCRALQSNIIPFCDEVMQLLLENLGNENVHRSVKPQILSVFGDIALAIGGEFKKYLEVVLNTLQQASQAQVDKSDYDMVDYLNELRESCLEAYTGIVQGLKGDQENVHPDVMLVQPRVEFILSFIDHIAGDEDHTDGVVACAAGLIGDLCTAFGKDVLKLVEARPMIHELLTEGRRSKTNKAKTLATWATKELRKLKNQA
PSMC2 (human), sequence (P35998 2-433 limits assumed): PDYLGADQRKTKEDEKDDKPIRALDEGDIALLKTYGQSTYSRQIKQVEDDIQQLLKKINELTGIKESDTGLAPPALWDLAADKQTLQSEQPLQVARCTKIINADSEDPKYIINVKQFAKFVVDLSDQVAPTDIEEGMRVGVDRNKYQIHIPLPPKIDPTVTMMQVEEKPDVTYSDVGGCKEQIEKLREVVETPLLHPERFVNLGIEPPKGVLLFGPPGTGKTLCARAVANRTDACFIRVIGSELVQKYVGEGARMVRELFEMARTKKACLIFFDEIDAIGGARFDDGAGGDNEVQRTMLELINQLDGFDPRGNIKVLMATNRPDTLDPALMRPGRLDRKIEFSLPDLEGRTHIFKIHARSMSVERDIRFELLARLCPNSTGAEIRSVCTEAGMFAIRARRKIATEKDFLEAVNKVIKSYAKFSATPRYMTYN
PSMA5 (human), sequence (P28066 whole entry): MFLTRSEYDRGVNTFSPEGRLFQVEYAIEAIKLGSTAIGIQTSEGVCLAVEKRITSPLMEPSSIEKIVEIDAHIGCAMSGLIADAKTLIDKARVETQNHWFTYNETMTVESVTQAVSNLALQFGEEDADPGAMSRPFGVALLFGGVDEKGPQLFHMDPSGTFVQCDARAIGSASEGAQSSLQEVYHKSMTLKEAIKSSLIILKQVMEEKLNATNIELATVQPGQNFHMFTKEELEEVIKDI
FBXO6 (human), sequence (Q9NRD1 whole entry): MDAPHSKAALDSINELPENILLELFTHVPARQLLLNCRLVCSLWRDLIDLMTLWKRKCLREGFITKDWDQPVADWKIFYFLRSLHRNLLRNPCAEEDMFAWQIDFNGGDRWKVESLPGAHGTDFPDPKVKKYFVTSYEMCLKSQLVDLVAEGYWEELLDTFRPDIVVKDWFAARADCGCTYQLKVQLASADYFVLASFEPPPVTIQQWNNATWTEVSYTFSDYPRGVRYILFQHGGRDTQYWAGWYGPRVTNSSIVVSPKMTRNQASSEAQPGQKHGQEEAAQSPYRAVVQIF
KTN1 (human), sequence (Q86UP2 whole entry): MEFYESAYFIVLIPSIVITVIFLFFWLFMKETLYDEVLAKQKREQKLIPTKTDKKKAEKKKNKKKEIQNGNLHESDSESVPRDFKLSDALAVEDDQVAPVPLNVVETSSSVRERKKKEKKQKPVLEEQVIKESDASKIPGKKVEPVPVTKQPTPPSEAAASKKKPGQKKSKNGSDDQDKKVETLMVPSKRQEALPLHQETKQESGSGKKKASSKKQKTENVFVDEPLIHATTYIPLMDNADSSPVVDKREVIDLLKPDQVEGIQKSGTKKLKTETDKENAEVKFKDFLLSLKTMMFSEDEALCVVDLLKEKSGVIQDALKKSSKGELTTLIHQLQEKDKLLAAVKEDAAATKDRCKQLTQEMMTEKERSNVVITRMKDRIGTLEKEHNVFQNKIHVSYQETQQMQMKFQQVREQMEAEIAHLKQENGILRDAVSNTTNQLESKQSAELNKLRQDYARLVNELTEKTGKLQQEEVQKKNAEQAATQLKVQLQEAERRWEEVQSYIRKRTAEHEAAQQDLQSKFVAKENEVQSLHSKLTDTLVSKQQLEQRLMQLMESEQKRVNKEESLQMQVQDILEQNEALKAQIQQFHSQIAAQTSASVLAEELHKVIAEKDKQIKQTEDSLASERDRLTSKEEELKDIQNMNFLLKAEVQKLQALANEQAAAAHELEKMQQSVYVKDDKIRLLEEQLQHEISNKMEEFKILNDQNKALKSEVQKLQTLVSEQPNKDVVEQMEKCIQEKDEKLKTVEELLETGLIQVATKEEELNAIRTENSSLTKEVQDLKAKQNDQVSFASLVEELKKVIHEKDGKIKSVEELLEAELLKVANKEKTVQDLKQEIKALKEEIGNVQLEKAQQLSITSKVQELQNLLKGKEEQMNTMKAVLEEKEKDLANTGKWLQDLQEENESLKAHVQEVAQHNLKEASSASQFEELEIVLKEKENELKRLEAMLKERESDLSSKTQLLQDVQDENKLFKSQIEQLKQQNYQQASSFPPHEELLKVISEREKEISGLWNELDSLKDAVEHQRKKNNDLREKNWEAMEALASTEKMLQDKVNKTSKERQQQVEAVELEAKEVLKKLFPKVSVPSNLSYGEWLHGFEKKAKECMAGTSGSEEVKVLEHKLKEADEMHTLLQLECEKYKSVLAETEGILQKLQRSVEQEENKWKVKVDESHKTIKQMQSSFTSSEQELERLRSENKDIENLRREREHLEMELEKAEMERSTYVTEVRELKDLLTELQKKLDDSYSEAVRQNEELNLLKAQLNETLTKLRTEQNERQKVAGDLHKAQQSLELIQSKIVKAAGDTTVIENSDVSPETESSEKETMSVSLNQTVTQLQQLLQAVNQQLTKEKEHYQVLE
ERP44 (human), sequence (Q9BS26 30-406 limits assumed): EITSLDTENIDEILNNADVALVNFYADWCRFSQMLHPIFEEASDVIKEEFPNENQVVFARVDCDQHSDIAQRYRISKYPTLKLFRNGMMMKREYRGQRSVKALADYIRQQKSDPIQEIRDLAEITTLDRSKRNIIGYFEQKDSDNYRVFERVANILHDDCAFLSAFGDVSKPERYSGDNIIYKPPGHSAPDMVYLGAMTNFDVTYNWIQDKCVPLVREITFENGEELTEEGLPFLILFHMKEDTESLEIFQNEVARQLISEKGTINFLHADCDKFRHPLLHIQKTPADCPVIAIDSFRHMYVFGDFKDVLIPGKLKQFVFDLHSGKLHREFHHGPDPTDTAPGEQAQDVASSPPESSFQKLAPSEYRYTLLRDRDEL
TRAFD1 (human), sequence (O14545 2-582 limits assumed): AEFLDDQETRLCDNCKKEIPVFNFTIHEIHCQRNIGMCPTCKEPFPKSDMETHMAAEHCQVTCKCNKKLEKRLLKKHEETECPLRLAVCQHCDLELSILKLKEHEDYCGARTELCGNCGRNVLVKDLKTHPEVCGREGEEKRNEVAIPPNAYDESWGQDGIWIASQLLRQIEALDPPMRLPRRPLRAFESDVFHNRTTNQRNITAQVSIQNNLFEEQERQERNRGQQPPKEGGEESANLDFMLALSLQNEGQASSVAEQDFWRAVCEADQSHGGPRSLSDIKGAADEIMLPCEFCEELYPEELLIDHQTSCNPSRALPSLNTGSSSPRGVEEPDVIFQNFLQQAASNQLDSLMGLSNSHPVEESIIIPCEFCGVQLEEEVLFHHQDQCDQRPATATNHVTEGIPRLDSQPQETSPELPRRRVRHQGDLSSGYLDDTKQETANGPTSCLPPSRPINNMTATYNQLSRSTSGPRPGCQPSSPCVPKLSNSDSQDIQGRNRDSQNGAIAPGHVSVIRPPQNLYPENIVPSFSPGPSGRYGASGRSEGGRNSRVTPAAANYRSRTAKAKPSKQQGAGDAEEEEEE
H1FX (human), sequence (Q92522 2-213 limits assumed): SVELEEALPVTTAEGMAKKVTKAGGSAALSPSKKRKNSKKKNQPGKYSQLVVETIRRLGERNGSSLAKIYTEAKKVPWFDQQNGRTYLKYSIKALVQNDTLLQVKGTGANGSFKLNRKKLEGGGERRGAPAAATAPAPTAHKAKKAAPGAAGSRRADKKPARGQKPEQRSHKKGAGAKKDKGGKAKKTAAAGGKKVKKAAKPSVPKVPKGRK

Consider “IgG control (Millipore Sigma 12-371) (antibody)”, for which the co-IP mass spectrometry count in [1], in assay [2], in assay [3], in assay [4], in assay [5] and in assay [6] was 0 throughout. The co-IP mass spectrometry count in [7] turned out to be 0; in assay [8], 0; in [9], 0; in assay [10], 0; in assay [11], 8; in assay [12] it was 0. Further, the co-IP mass spectrometry count in [13] worked out at 0; in assay [14], 0; in assay [15] it was 0; in assay [16], 2; in assay [17], 0; in [18], 0. In addition, the co-IP mass spectrometry count in assay [19], in assay [20], in assay [21], in [22], in [23] and in [24] was 0 in each case. Also, the co-IP mass spectrometry count in [25], in assay [26], in assay [27], in assay [28], in assay [29] and in [30] was 0 in each case. In addition, the co-IP mass spectrometry count in assay [31] and in assay [32] was 0 throughout.

Turning to “N-terminal FLAG tagged B3GNT2 (from UniProt Q9NY97 1-397) (enzyme)”, the co-IP mass spectrometry count in [33] turned out to be 4; in assay [34], 3; in [35] it was 2; in assay [36] it was 5; in [37], 2; in assay [38], 2. This substance also yielded a co-IP mass spectrometry count in assay [39] of 4.
